Data as given in article PMC11981803.

What was measured:
[1] = target: transmembrane domain of SaeS (SaeS TM), reconstituted into DMPC/DHPC bicelles (Staphylococcus aureus); experiment: SPR
[2] = target: transmembrane domain of SaeS (SaeS TM), reconstituted into DMPC/DHPC bicelles (Staphylococcus aureus); experiment: SDS-PAGE

transmembrane domain of SaeS (SaeS TM), reconstituted into DMPC/DHPC bicelles (Staphylococcus aureus), sequence (Q2FIT5 whole entry, the tested form may be a part): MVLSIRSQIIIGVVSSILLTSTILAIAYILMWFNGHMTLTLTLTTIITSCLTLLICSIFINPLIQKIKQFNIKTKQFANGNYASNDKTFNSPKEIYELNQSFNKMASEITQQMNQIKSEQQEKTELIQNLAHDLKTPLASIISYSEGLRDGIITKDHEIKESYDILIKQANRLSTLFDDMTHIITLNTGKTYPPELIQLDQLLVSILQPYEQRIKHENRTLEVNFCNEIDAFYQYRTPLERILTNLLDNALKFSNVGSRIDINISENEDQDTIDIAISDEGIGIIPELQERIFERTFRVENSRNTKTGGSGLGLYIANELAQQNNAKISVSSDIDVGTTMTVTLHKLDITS

Human neutrophil defensin-1 (from UniProt P59665 65-94) (peptide)
Kd [1]: 1070 nM | koff [1]: 0.0186 s⁻¹ | kon [1]: 17400 M⁻¹ s⁻¹

transmembrane domain of SaeS (SaeS TM), reconstituted into DMPC/DHPC bicelles (domain or fragment)
stoichiometry N [2]: 2
